The values that follow come from the nanobody polyreactivity screen of Harvey et al. (2022).

The nature of the data set: yeast display, Sf9 membrane polyspecificity reagent, FACS + sequencing; frameworks hold sequencing errors. The method, boiled down:
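Nanobodies from a synthetic yeast display library (Saccharomyces cerevisiae BJ5465), induced 36–48 hours with galactose, were stained 1 hour at 4 °C with 10% biotinylated, detergent-solubilized Sf9 membrane reagent, enriched on streptavidin microbeads, then FACS-sorted. Anti-HA (expression) and streptavidin (reagent binding) fluorescence set low and high (top ~1%) gates. Polyreactivity labels come from the gate of origin. Genes were colony-PCR amplified, MiSeq 2 × 250 sequenced and filtered by CDR length.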
Regarding “QVQLVESGGGLVQAGGSLRLSCAASGRTFLRYTMGWYRQAPGKERELVASITRGGSTYYADSVKGRFTISRDNAKNTVYLQMNSLKPEDTAVYYCAAGKALLSRYDYWGQGTQVTVSS”, the “polyreactivity (PSR sort gate)” value is “high polyreactivity”.
For “QVQLVESGGGLVQAGGSLRLSCAASGRTFLSNAMGWYRQAPGKERELVAAISNGDNTYYADSVKGRFTISRDNAKNTVVLQMNSLKPEDTAVYYCAADQYWSWIYYPVVEYDYWGEGTQVTVSS” the value was “low polyreactivity”; for “QVQLVESGGGLVQAGGSLRLSCAASGRTFLVNAMGWYRQAPGKEREFVAAITSRSGRTNYADSVKGRFTISRDNAKNTVYLEMNSLKPEDTAVYYCNAEGYTVKYWYSRYDYWGQGTQVTVSS”, “high polyreactivity”.
Turning to “QVQLVESGGGLVQAGGSLRLSCAASGRTFLWNAMGWYRQAPGKERELITYYADSVKWRFTISRDNAKNTVYLQMNSLKPEDTAVYYCAAEQGSSVLYDSWGQGTQVTVSS”, the “polyreactivity (PSR sort gate)” value was “low polyreactivity”.
For “QVQLVESGGGLVQAGGSLRLSCAASGRTFLWNDMGWSRQAPGKERELVAAITGSDGTYADSVKGRFTISRDNAKNTVYLQMNSLKPEDTAVYYCAAETYWYFPWKYDYWGQGTQVTVSS” the value was “low polyreactivity”; for “QVQLVESGGGLVQAGGSLRLSCAASGRTFLWYTMGWYRQAPGKERELVAAISGSGGSTYYADSVKGRFTISRDNAKNTVYLQMNSLKPEDTAVYYCNAVRGYRYDYWGQGTQVTVSS”, “high polyreactivity”.
On to “QVQLVESGGGLVQAGGSLRLSCAASGRTFLYNAMGWYRQAPGKERELVAAIRRGSSTYYADSVKGRFTISRDNAMNTVYLQMNSLKPEDTAVYYCAARGRYRIGPGRYGKRYDYWGQGTQVTVSS”, for which the “polyreactivity (PSR sort gate)” value is recorded as “high polyreactivity”.
The entry for “QVQLVESGGGLVQAGGSLRLSCAASGRTFLYNAMGWYRQAPGKERELVASISYSGGSTYYADSVKGRFTISRDTAKYTVYLQMNSLKPEDTAGYYCAARFYASQDIRYDYWGQGTQVTVSS” is “high polyreactivity”.
In the case of “QVQLVESGGGLVQAGGSLRLSCAASGRTFLYNARGWSRQAPGKEMELVAAITKSGGSKYYADSVKGRFTISRDNAKNTVYLQMNSLKPEDTAVYYCAAARRYYTYYREDYYYWGQGTQVTVSS”, the “polyreactivity (PSR sort gate)” value was “high polyreactivity”.
Take “QVQLVESGGGLVQAGGSLRLSCAASGRTFLYYAMGWYRQAPGKERELVAGITSGGSTNYADSVKGRFTISRDNAKNTVYLQMNSLKPEDTAVYYCAVDQGYSRTADVNYDYWGQGTQVTVSS”: the “polyreactivity (PSR sort gate)” value is listed as “low polyreactivity”.
The entry for “QVQLVESGGGLVQAGGSLRLSCAASGRTFLYYVMGWYRQAPGKERELVAAITNRGGSTYYADSVKGRFTISRDNAKNTVYLQLNSLKPEDTAVYYCNAPYGVYWSSTYYYWGQGTQVTVSS” is “high polyreactivity”; for “QVQLVESGGGLVQAGGSLRLSCAASGRTFMKNTMGWYIQAPGKERELVAVITRNGDSTYADSVKGRFTISRDNAKNTVYLQKNSLKPEDTAVFYCNVGSYRYRRYDYWGQGTQVTVSS” it is “high polyreactivity”.
Regarding “QVQLVESGGGLVQAGGSLRLSCAASGRTFNAYTMGSYRPAPGKERELVAAITSSGGNTYYADSVKGRFTISRDNAKNTVYLQMNSLKPEDTAVYYCNTVYLYGTHDYWGQGTQVTVSS”, the “polyreactivity (PSR sort gate)” value is on record as “low polyreactivity”.
On to “QVQLVESGGGLVQAGGSLRLSCAASGRTFNGNAMGWYRQAPGKERELVAGISTSDGSTYYADSVKGRFTISRDNAKNTVYLQMNSLKPVDTAVYDCAAYSHHQFSSSEYYYWGQGTQLTVSS”, for which the “polyreactivity (PSR sort gate)” value is “low polyreactivity”.
In the case of “QVQLVESGGGLVQAGGSLRLSCAASGRTFNGYAMGWYRQAPGKERELVAAISSSGGSTYYADSVKGRFTISRDNAKNTVYLQMNSLKPEDTAVYYCAARRANGFNYWGQGTQVTVSS”, the “polyreactivity (PSR sort gate)” value is on record as “high polyreactivity”.
“QVQLVESGGGLVQAGGSLRLSCAASGRTFNGYAMGWYRQAPGKERELVAAITWNGGRTSYADSVKGRFTISRDNAKNTVYLQMNSLKPEDTAVYYCATAVLYPYFFSNMDYWGQGTQVTVSS”: the “polyreactivity (PSR sort gate)” value is given as “low polyreactivity”.
The entry for “QVQLVESGGGLVQAGGSLRLSCAASGRTFNGYAMGWYRQAPGKERELVASISWSGGRTYYADSVKGRFTISRDNAKNTVYLQMNSLIPEDTAVYYCNAYYYRVPRPWFDYWGQGTQVTVSS” is “high polyreactivity”; for “QVQLVESGGGLVQAGGSLRLSCAASGRTFNGYVMGWYRQAPGKEREFVAVINWSGGNTYYADSVKGRFTISRDNAKNTVNLQMNSLKPEDTAVYYCAARRVRSYAYDYWGQGTQVTVSS” it is “high polyreactivity”.
Take “QVQLVESGGGLVQAGGSLRLSCAASGRTFNGYVMGWYRQAPGKERELVAAITNRDGSTYYADSVKGRFTISRDNAKNTVYLQMNSLKPEDTAVYYCAAPVWLWADRYDSWGQGTQVTVSS”: the “polyreactivity (PSR sort gate)” value is given as “low polyreactivity”.
For “QVQLVESGGGLVQAGGSLRLSCAASGRTFNIYAMGWYRQAPGKERELVAAISKRGGTTYYADSVKGRFTISRDNAKNTVYLQMNSLKPEDTAVYYCAADRTNPYYGGMDYWGQGTQVTVSS” the value was “high polyreactivity”; for “QVQLVESGGGLVQAGGSLRLSCAASGRTFNIYAMGWYRQEPGKERELVAAITNNGGRTYYADSVKGRFTISRDNAKNTVYLQMNSLKPEDTAVYYCAAVSGRSYDKYYYWGQGTQVTVSS”, “high polyreactivity”; for “QVQLVESGGGLVQAGGSLRLSCAASGRTFNRNAMGWYRQAPGKERELVAAISRGGGGTFYADSVKGRFTISRDNAKNTVYLQMNSLKPEDTAVYYCAAVPIAADKANGYDYWGQGTQVTVSS”, “low polyreactivity”.
The entry for “QVQLVESGGGLVQAGGSLRLSCAASGRTFNRYAMGRYRQAPGKERELVAVITSDGRRNYADSVKGRFTISRDKAKNTVYFQINSLKPEDTAVSYCNKRSALSFVYDFDYWGQGTQVTVSS” is “low polyreactivity”; for “QVQLVESGGGLVQAGGSLRLSCAASGRTFNSYAMGWSRQAPGKDRELVAAISRTGASTYYADSVKGRFTISRDNAQNTVYLQMHSLKPEDTAVYYCAADANSGDGYYWGHGTQVTVSS” it is “high polyreactivity”; for “QVQLVESGGGLVQAGGSLRLSCAASGRTFNVYAMGWYRQAPGKERELVAVITNGGSTNYADSVKGRFTISRDNAKNTVYLQMNSLKPEDTAVYYCAASWGYGALTPDMGYWGQGTQVTVSS” it is “low polyreactivity”.
Turning to “QVQLVESGGGLVQAGGSLRLSCAASGRTFNYNAMGCYRQAPGKERELVAAITSGGRTNYADSVKGRFTISRDNAKNTVYLQMNSLKPEDTAVYYCATEYYRYRWVGAFRYPVYYWGQGTQVTVSS”, the “polyreactivity (PSR sort gate)” value is recorded as “low polyreactivity”.
For “QVQLVESGGGLVQAGGSLRLSCAASGRTFNYNAMGWYRQAPGKERELVAAISWGGGSTFYAVSEKGRFTISRDNAKNTVYLQMNTLKPEDTAVYYCAADRQYGNRGAYYYWGQGTQVTVSS” the value was “low polyreactivity”; for “QVQLVESGGGLVQAGGSLRLSCAASGRTFNYSAMGWYRQAPGTERELVAAISSSGGRTYYADSVKGRFTISRDNAKITVYLQMNSLKPEDTAVYYCAADSFYYRPEYDYWGQGTQVTVSS”, “low polyreactivity”; for “QVQLVESGGGLVQAGGSLRLSCAASGRTFNYYAMGWSRQAPGKERELVAAITSGGRTNYADSVKGRFTISRDNAKNTVYLQMNSLKPEDTAVYYCATEYYRYRWVGAFRYPVYYWGQGTQVTVSS”, “low polyreactivity”.
For “QVQLVESGGGLVQAGGSLRLSCAASGRTFNYYAMGWYRQAPGKERELVAAISGSGGRTYYADSVKGRFTISRDNAKNTVYLQMNSLKPEDTAVYYCNADVGKYPYAHTYWARRYYYLGQGTQVTVSS” the value was “high polyreactivity”.
The entry for “QVQLVESGGGLVQAGGSLRLSCAASGRTFNYYGMGWYRQAPGKERELVAAINSGDNTYYADSVKGRFTISRDNAKNTVYLQMTSLKPEDTAVYYCNTDAFWYYYSWYDYWGQGTQVTVSS” is “low polyreactivity”.
In the case of “QVQLVESGGGLVQAGGSLRLSCAASGRTFNYYTMGWYRQAPGKERELVAAISWSGDSTYYADSVKGRFTISRDNAKNTVYLQMNSLKPEDTAVYYCAAGYASGPRPQTAYYYWGQGTQVTVSS”, the “polyreactivity (PSR sort gate)” value is given as “low polyreactivity”.
For “QVQLVESGGGLVQAGGSLRLSCAASGRTFPFNAMGWYRQAPGKERELVAVINSGGSTYYADSVKGRFTISRDNAKNTVYLQMNSLKPEDTAVYYCNAYSSRYRYNYWGQGTQVTVSS”, the “polyreactivity (PSR sort gate)” value is recorded as “high polyreactivity”.
The entry for “QVQLVESGGGLVQAGGSLRLSCAASGRTFPFYAMGWYRQAPGKEREFVASITRSGGSTNYADSVKGRFTISRDNAKNTVYLQMNSLKPEDTAVYYCNAGAVYWGYSRGWYERDYWGQGTQVTVSS” is “high polyreactivity”; for “QVQLVESGGGLVQAGGSLRLSCAASGRTFPGKAMGWYRQAPGKERELVAAISKSSSRTYYADSVKGRFTISRDNAKNTVYLQMNSLKAEDTAVYYCAASSFNNGHRYDYWGQGTQVTVSS” it is “high polyreactivity”.
On to “QVQLVESGGGLVQAGGSLRLSCAASGRTFPGNAMGWYRQAPGKERELVAAITSSGSTNYADSVKGRFTISRDNAKNTVYLQMNSLKPEDTAVYYCNAAWFYVYGVWILDWGQGTQVTVSS”, for which the “polyreactivity (PSR sort gate)” value is given as “low polyreactivity”.
In the case of “QVQLVESGGGLVQAGGSLRLSCAASGRTFPGNAMGWYRQATGKERELVATISSGGTTNYADSVKGRFTISRDNAKNTVYLQMNSLKPEDTAVYYCATDTYHHKADYEYWGQGTQVTVSS”, the “polyreactivity (PSR sort gate)” value is “low polyreactivity”.
With “QVQLVESGGGLVQAGGSLRLSCAASGRTFPGYAMGWYRQAPGTEMEMVAAISSGGGTKYADSVKGRFTISRDNAKYTVYVQMNSLKPEDTAVFYCAARGGTYHWGRYYWRQYDYWGQGTQVTVSS”, the “polyreactivity (PSR sort gate)” value is listed as “high polyreactivity”.
The entry for “QVQLVESGGGLVQAGGSLRLSCAASGRTFPIYAMGWYRQAPGKERELVAAITRGGRTNYADSVKGRFTISRDNAKNTVYLQMNSLKTEDTAVYYCAARSYGTYLYAEYDYWGQGTQVTVSS” is “high polyreactivity”.
The entry for “QVQLVESGGGLVQAGGSLRLSCAASGRTFPKYAMGWYRQAPGKERELVAAITWRASRTYYADSVKGRFTISRDYAKITVYLQMNSLKPEDTAVYYCAAKGVGQAPKRDYWGQGTQVNVSS” is “high polyreactivity”; for “QVQLVESGGGLVQAGGSLRLSCAASGRTFPNNAMGWYRQAPGKERELVAAISSGSSTDYADSVKGRFTISRDNAKNTVYLQMNSLKPEDTAVYYCNAGDYTYPGSPWPGYAYDYWGQGTQVTVSS” it is “low polyreactivity”.
